{
  "source": "patent US20210063414A1",
  "about": "“METHODS FOR PREVENTING AND/OR TREATING BONE LOSS CONDITIONS BY MODULATING IRISIN” (Dana-Farber Cancer Institute, Inc., priority 2018, published 2021)",
  "molecules": {"B1": {"name": "irisin: secreted cleaved form of FNDC5; recombinant human/mouse irisin with C-terminal his tag produced in HEK293 cells (protein)", "chain": "DSPSAPVNVTVRHLKANSAVVSWDVLEDEVVIGFAISQQKKDVRMLRFIQEVNTTTRSCALWDLEEDTEYIVHVQAISIQGQSPASEPVLFKTPREAEKMASKNKDEVTMKE", "modifications": "left off: small tags and cut ends", "notes": "secreted cleaved form of FNDC5; recombinant human/mouse irisin with C-terminal his tag produced in HEK293 cells"}},
  "key": {"3T3 F442A adipose cells": {"test_system": "3T3 F442A adipose cells", "experiment": "Integrin-like signaling in adipose cells, immunoblot", "type": "cell-based, murine", "settings": "irisin 10 minutes", "experimental": "Differentiated 3T3 F442A adipose cells were incubated in serum free medium for 4 hours followed by treatment of indicated concentrations of irisin for 10 minutes. Cells were lysed to detect the indicated protein level using immunoblot analysis.\nCertain materials and methods were used to generate the results described herein. For example, the data shown in FIG. 1A resulted from MLO-Y4 (an osteocyte-like cell line) cells treated with the indicated concentration of irisin and hydrogen peroxide for 4 hours. Cells were stained with Hoechst 33342 (ThermoFisher Scientific, catalog number H3570) and Eth-D1 (ThermoFisher Scientific, catalog number E1169) and analyzed to determine the percentage of cell death using ImageJ. […] Co-precipitated irisin was analyzed by immunoblot analysis against flag tag (Sigma Aldrich, catalog number A8592). The data shown in FIGS. 5A and 5B were generated from MLO-Y4 cells treated and analyzed as in the experiments used to generate the data shown in FIG. 2D, except that pre-treatment of 100 nM RGDS (FIG. 5A) or echistatin (R & D Systems Inc., catalog number 3202/100U) (FIG. 5B) for 10 minutes was performed before irisin treatment. […] Sclerostin mRNA level was analyzed by qPCR (FIG. 7A). […] Epididymal fats were collected, RNAs were extracted from the tissues, and mRNA levels of the indicated genes were analyzed by qPCR. […]"}, "integrin αV/β5": {"test_system": "integrin αV/β5", "experiment": "Protein-protein binding assay: irisin with his-tag integrins, Ni-NTA co-precipitation and immunoblot", "parameters": "species or system murine and human", "settings": "100 nM irisin, 5 nM his-tag integrin", "experimental": "100 nM irisin was incubated with 5 nM indicated his-tag integrins followed by immunoprecipitation using Ni-NTA agaroses. Precipitated integrins and co-precipitated irisin were analyzed by immunoblot analysis. […] HEK293T cells were seeded and incubated until 50% cell density. The cells were transfected with 0.1 μg plasmids of indicated integrins. After 48 hours, the cells were incubated with Freestyle293 medium for 3 hours and were treated with indicated concentration of irisin for 5 minutes. Cells were lysed to detect the indicated protein level using immunoblot analysis. […] Sclerostin mRNA level was analyzed by qRT-PCR. […]\n100 nM irisin was incubated with 5 nM indicated his-tag integrins followed by immunoprecipitation using Ni-NTA agaroses. Precipitated integrins and co-precipitated irisin were analyzed by immunoblot analysis. […] Cells were treated and analyzed as FIG. 14B except using plasmids encoding integrin α5/β1 or integrin α11/β1 (FIG. 15C) integrin αV/β1(FIG. 15D).\n100 nM flag-tagged mammalian irisin was incubated with 5 nM of the indicated his-tag integrins in a final volume of 600 μl in 1.5 ml Protein LoBind Tubes (Eppendorf®, 022431081) for 5 minutes at room temperature under rotation. […] Precipitated integrins were detected by immunoblot analysis against his tag. Co-precipitated irisin was detected by immunoblot analysis against flag-tag."}},
  "note": "“Also recorded” adds a separate entry of the source.",
  "data": [
    {"molecule": "B1", "values": [
      {"measurement": "irisin dose at which phosphorylation of FAK and CREB were observed", "setting": "3T3 F442A adipose cells", "value": 30, "unit": "pM"},
      {"measurement": "extent of binding of irisin to integrin complex", "setting": "integrin αV/β5", "value": "by far the highest extent of binding; also recorded: highest apparent affinity"}
    ]}
  ]
}
